This is an account of results in publication PMC9110341, “A nucleotide-sensing oligomerization mechanism that controls NrdR-dependent transcription of ribonucleotide reductases” (Nature Communications, 2022).

Series [1] concerns the target T1, NrdR (Streptomyces coelicolor, UniProt O69980).
T1 construct: full-length wild type, C-terminal His tag (pET30a(+)::nrdR), E. coli BL21(DE3); apo dimer 44 kDa, dodecamer with ATP, octamer/tetramer with dATP + ATP
The experiment in a line: isothermal titration calorimetry, one set of sites. Conditions: 10 mM MgCl2, 50 mM Tris-HCl pH 8, 300 mM NaCl, 10% glycerol, 1 mM TCEP; 20 and 10 °C (which one not told). It is filed as binding. On the technique in general: ITC needs no label: the signal is the heat of the interaction.

The target of series [2] is T1, NrdR. The experiment in a line: isothermal titration calorimetry, one set of sites. It is filed as binding.
In series [3] the target is NrdRΔNΔC, truncated S. coelicolor NrdR lacking both N- and C-terminal domains (Streptomyces coelicolor) (UniProt O69980). The experiment in a line: SEC; analytical SEC, Superdex 200 PC 3.2/30, 7 °C; 50 mM Tris-HCl pH 8.5, 50 mM KCl, 10 mM MgCl2, 0.5 mM TCEP, nucleotides in sample and buffer; 64 µM NrdR samples. For orientation: SEC sorts molecules by how far they enter the pores of the column.

In series [4] the target is T2, NrdR (Streptomyces coelicolor M145, UniProt O69980 1-182).
T2 sequence: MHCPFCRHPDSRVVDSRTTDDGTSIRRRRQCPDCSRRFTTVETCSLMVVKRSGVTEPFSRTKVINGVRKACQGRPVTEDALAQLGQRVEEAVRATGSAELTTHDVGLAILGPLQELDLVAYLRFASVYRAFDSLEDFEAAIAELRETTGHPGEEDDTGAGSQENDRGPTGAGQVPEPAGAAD
The experiment in a line: MST; MST: 25 mM Tris-HCl pH 7.6, 150 mM NaCl, 10 mM MgCl2, 5% glycerol, 1 mM DTT, 0.05% Tween-20, nucleotides 1 mM each, 10 nM Cy5-dsDNA, room temperature. Conditions: protein: recombinant; tags: C-terminal His6 (pET30a); chain copies: 4; label: 5'-Cy5 on sense strand; blunt.

In the next series the target is T3, NrdR D15A (Streptomyces coelicolor M145, UniProt O69980 1-182, D15A).
T3 sequence: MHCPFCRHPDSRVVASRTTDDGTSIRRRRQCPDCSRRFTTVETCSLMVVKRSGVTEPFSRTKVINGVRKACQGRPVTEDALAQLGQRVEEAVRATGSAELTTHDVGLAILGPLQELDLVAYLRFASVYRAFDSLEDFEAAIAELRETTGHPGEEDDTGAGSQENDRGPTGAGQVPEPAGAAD
The experiment in a line: MST; 1 mM dATP + 1 mM ATP; MST: 25 mM Tris-HCl pH 7.6, 150 mM NaCl, 10 mM MgCl2, 5% glycerol, 1 mM DTT, 0.05% Tween-20, nucleotides 1 mM each, 10 nM Cy5-dsDNA, room temperature. Conditions: protein: recombinant; tags: C-terminal His6 (pET30a); label: 5'-Cy5 on sense strand; blunt.

The target of a further series is T4, NrdR R17A (Streptomyces coelicolor M145, UniProt O69980 1-182, R17A).
T4 sequence: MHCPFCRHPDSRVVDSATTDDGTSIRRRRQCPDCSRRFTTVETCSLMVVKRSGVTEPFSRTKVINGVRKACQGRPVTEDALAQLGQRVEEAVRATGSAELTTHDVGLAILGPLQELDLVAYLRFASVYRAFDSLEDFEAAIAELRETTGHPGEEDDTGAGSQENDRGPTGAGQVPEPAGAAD
The description is as above. Conditions: protein: recombinant; tags: C-terminal His6 (pET30a); label: 5'-Cy5 on sense strand; blunt.

For series [5], the target named is T2, NrdR. The experiment in a line: MST; 1 mM dATP + 1 mM ATP, 10 mM Mg2+; MST: 25 mM Tris-HCl pH 7.6, 150 mM NaCl, 10 mM MgCl2, 5% glycerol, 1 mM DTT, 0.05% Tween-20, nucleotides 1 mM each, 10 nM Cy5-dsDNA, room temperature. The settings on record: protein: recombinant; tags: C-terminal His6 (pET30a); chain copies: 4; label: 5'-Cy5 on sense strand; blunt.
Series [6] deals with T2, NrdR. In words: MST; 1 mM dATP + 1 mM ADP, 10 mM Mg2+; MST: 25 mM Tris-HCl pH 7.6, 150 mM NaCl, 10 mM MgCl2, 5% glycerol, 1 mM DTT, 0.05% Tween-20, nucleotides 1 mM each, 10 nM Cy5-dsDNA, room temperature. The settings on record: protein: recombinant; tags: C-terminal His6 (pET30a); chain copies: 4; label: 5'-Cy5 on sense strand; blunt.
Another series concerns the target T5, NrdR D15A/R17A (Streptomyces coelicolor M145, UniProt O69980 1-182, D15A;R17A).
T5 sequence: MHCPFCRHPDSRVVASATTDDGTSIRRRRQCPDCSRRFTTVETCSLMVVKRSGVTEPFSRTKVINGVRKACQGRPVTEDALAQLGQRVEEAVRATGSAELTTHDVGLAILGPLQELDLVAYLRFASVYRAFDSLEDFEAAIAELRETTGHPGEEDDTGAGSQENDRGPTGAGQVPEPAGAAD
The experiment in a line: MST; 1 mM dATP + 1 mM ATP; MST: 25 mM Tris-HCl pH 7.6, 150 mM NaCl, 10 mM MgCl2, 5% glycerol, 1 mM DTT, 0.05% Tween-20, nucleotides 1 mM each, 10 nM Cy5-dsDNA, room temperature. The settings on record: protein: recombinant; tags: C-terminal His6 (pET30a); label: 5'-Cy5 on sense strand; blunt.

In series [7] the target is T2, NrdR. The description is as above. Conditions: protein: recombinant; tags: C-terminal His6 (pET30a); chain copies: 4; label: 5'-Cy5 on sense strand; blunt.
Series [8] concerns the molecule itself. In words: GEMMA (gas-phase electrophoretic mobility molecular analysis); with dATP + ATP (50 µM nucleotide) and equimolar Mg acetate; 0.08 and 0.16 mg/ml; 100 mM ammonium acetate pH 7.3, 0.005% Tween-20.
Series [9] concerns the molecule itself. The experiment in a line: GEMMA (gas-phase electrophoretic mobility molecular analysis); with 50 µM dAMP and equimolar Mg acetate; 0.08 mg/ml; 100 mM ammonium acetate pH 7.3, 0.005% Tween-20.
Series [10] deals with the molecule itself. The experiment in a line: cryo-EM structure; ATP-loaded NrdR; 1 mM ATP and 10 mM MgCl2 added to apo-protein, SEC in 50 mM Tris-HCl pH 8.0, 150 mM NaCl, 10 mM MgCl2, 1 mM TCEP, 0.5 mM ATP; 0.4 mg/ml (19 µM monomer) on grids.

Where “and” joins values, the source holds several entries; their conditions need not be identical. Identical values can stand only once.

With `Nc1ncnc2c1ncn2[C@@H]1O[C@H](COP(=O)(O)O)[C@@H](O)[C@H]1O` [AMP], the KD result on NrdR [1] was “AMP, dAMP, and di-cyclic AMP were comparable to ATP in binding strengths”.

Take `Nc1ncnc2c1ncn2[C@@H]1O[C@@H]2COP(=O)(O)O[C@H]3[C@@H](O)[C@H](n4cnc5c(N)ncnc54)O[C@@H]3COP(=O)(O)O[C@H]2[C@H]1O` [cyclic di-AMP]: the KD entry at NrdR [1] was “AMP, dAMP, and di-cyclic AMP were comparable to ATP in binding strengths”.

What is called Kd is a measure of binding affinity in units of concentration. In turn, `Nc1ncnc2c1ncn2[C@@H]1O[C@H](COP(=O)(O)OP(=O)(O)O)[C@@H](O)[C@H]1O` [ADP] yielded a Kd on NrdR [2] of 600 nM.

A word on the stoichiometry N: it is the number of molecules, sites or subunits per partner or assembly. As for “NrdRΔNΔC, truncated S. coelicolor NrdR lacking both N- and C-terminal domains (from UniProt O69980 1-182) (domain or fragment)”, the stoichiometry N in series [3] came to 2.

In the case of `Nc1ncnc2c1ncn2[C@H]1C[C@H](O)[C@@H](COP(=O)(O)O)O1` [dAMP], on NrdR [1], the KD result is “AMP, dAMP, and di-cyclic AMP were comparable to ATP in binding strengths”.

With `Nc1ncnc2c1ncn2[C@@H]1O[C@H](COP(=O)(O)OP(=O)(O)OP(=O)(O)O)[C@@H](O)[C@H]1O` [ATP], on NrdR [2], the Kd was 4000 nM.

As for `Nc1ncnc2c1ncn2[C@H]1C[C@H](O)[C@@H](COP(=O)(O)OP(=O)(O)O)O1` [dADP], binding at NrdR [2] was put at a Kd of 400 nM.

`Nc1ncnc2c1ncn2[C@H]1C[C@H](O)[C@@H](COP(=O)(O)OP(=O)(O)OP(=O)(O)O)O1` [dATP]: the Kd on NrdR [2] was 1000 nM.

B1: cydA promoter 57 bp (dsDNA)
DNA 1: GTAGGTCATAATTGCTTGTGAATGTGAACGCGTTCACAAGCGTGTCCCGATTGCGCC
DNA 2: GGCGCAATCGGGACACGCTTGTGAACGCGTTCACATTCACAAGCAATTATGACCTAC
For B1, the binding result with NrdR [4] and with NrdR R17A was “no binding” in each case. Besides, the Kd in the series with NrdR D15A was determined as 2600 ± 300 nM.

B2: nrdRJ promoter 57 bp (dsDNA)
DNA 1: GCCAATCCCCACATCTAGTGGTTGGATAGCGTGAGCAGCCCACAAGTTGTGGTCCCC
DNA 2: GGGGACCACAACTTGTGGGCTGCTCACGCTATCCAACCACTAGATGTGGGGATTGGC
With B2, the Kd in the series with NrdR [5] was 51 ± 11 nM; with NrdR [6], 68 ± 16 nM. Further, the binding result is “binds” in the series with NrdR D15A, “no binding” with NrdR R17A and “no binding” with NrdR D15A/R17A.

B3: nrdRJ C18/C49 (dsDNA)
DNA 1: GCCAATCCCCACATCTACTGGTTGGATAGCGTGAGCAGCCCACAAGTTCTGGTCCCC
DNA 2: GGGGACCAGAACTTGTGGGCTGCTCACGCTATCCAACCAGTAGATGTGGGGATTGGC
On to B3, for which the “fold decrease in affinity vs wild-type DNA” value with NrdR [7] was ~60 fold lower affinity than wild-type DNA. Besides, in the series with NrdR R17A, the binding result was “no binding”.

B4: nrdRJ T9/T18/T40/T49 (dsDNA)
DNA 1: GCCAATCCTCACATCTATTGGTTGGATAGCGTGAGCAGCTCACAAGTTTTGGTCCCC
DNA 2: GGGGACCAAAACTTGTGAGCTGCTCACGCTATCCAACCAATAGATGTGAGGATTGGC
Turning to B4, in the series with NrdR R17A, the binding result is “no binding”.

B5: nrdRJ G9/C18 (dsDNA)
DNA 1: GCCAATCCGCACATCTACTGGTTGGATAGCGTGAGCAGCCCACAAGTTGTGGTCCCC
DNA 2: GGGGACCACAACTTGTGGGCTGCTCACGCTATCCAACCAGTAGATGTGCGGATTGGC
With B5, the “fold decrease in affinity vs wild-type DNA” value with NrdR [7] is ~50 fold lower affinity than wild-type DNA. Also, in the series with NrdR R17A, the binding result is on record as “no binding”.

B6: nrdAB promoter 57 bp (dsDNA)
DNA 1: CCGGGACACAACATCTGGGGGTGCTCGCGTCCCCCGGCACAAGATGTATGCTCATGC
DNA 2: GCATGAGCATACATCTTGTGCCGGGGGACGCGAGCACCCCCAGATGTTGTGTCCCGG
For the molecule B6, the Kd is 142 ± 31 nM in the series with NrdR [5] and 159 ± 22 nM with NrdR [6].

B7: Streptomyces coelicolor NrdR (wild type) (natural protein)
chain: MHCPFCRHPDSRVVDSRTTDDGTSIRRRRQCPDCSRRFTTVETCSLMVVKRSGVTEPFSRTKVINGVRKACQGRPVTEDALAQLGQRVEEAVRATGSAELTTHDVGLAILGPLQELDLVAYLRFASVYRAFDSLEDFEAAIAELRETTGHPGEEDDTGAGSQENDRGPTGAGQVPEPAGAAD
notes: RNR-specific transcriptional repressor NrdR of Streptomyces coelicolor strain M145; the nrdR gene cloned into pET30a(+), wild type; N-terminal Zn-ribbon domain followed by an ATP-cone domain and a C-terminal part; the wild-type nrdR gene was amplified, so probably the whole protein; Holds about 0.78 mol Zn per mol protein; also called apo-NrdR; ATP-loaded NrdR
Regarding B7, the “stoichiometry N” value is 8 and 4 in series [8]; 2 in [9]; 12 in series [10].
